Measured values as given in patent US20180086841A1 (Merck Sharp & Dohme, published 2018).
Changes are numbered by the printed parent chain.

T1: Q41A
T1 construct: also called hCD27 Q41A
T1 receptor chain: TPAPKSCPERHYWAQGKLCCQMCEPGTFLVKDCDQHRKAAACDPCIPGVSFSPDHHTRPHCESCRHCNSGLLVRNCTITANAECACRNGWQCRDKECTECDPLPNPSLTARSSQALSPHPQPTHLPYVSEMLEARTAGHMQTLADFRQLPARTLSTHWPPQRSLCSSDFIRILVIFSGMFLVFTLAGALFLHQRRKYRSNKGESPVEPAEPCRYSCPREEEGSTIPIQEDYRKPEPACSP

T2: K31A
T2 construct: also called hCD27 K31A
T2 receptor chain: T1 receptor chain with K31A, A41Q

T3: D43A
T3 construct: also called hCD27 D43A
T3 receptor chain: T1 receptor chain with A41Q, D43A

T4: W90A
T4 construct: also called hCD27 W90A
T4 receptor chain: T1 receptor chain with A41Q, W90A

T5: V49A
T5 construct: also called hCD27 V49A
T5 receptor chain: T1 receptor chain with A41Q, V49A

T6: K38A
T6 construct: also called hCD27 K38A
T6 receptor chain: T1 receptor chain with K38A, A41Q

T7: P8A
T7 construct: also called hCD27 P8A
T7 receptor chain: T1 receptor chain with P8A, A41Q

T8: R37A
T8 construct: also called hCD27 R37A
T8 receptor chain: T1 receptor chain with R37A, A41Q

T9: H36A
T9 construct: also called hCD27 H36A
T9 receptor chain: T1 receptor chain with H36A, A41Q

B1: hCD27.15-6B (antibody, human IgG4 S228P, kappa, V domains shown)
VH: QVQLVQSGAEVKKPGASVKVSCKASGFIIKATYMHWVRQAPGQRLEWMGRIDPANGETKYDPKFQVRVTITADTSASTAYMELSSLRSEDTAVYYCARYAWYFDVWGQGTLVTVSS
VL: DIQMTQSPSSLSASVGDRVTITCRASENIYSFLAWYQQKPGKAPKLLIYHAKTLAEGVTSRFSGSGSGTDFTLTISSLQPEDSATYYCQHYYGSPLTFGQGTRLEIKR
notes: also called hCD27.15 (humanized 6B); humanized hCD27.15 (human IgG4, Clone 6B)
B2: hCD27.131A (mouse parental 131A) (antibody, mouse IgG1, V domains shown)
VH: QIQLVQSGPELKKPGETVKISCKASGYTFTNYGMNWVKQAPGKGLKWMGWINTNTGEPTYAEEFKGRFAFSLETSATTAYLQINNLKNEDTATYFCAREGDAMDYWGQGTSVTVSS
VL: QIVLTQSPAIMSASPGEKVTMTCSASSSVSYMHWYQQKSGTSPKRWIYDTSKLASGVPARFSGSGSGTSYSLTISSMEAEDAATYYCQQWNSYPFTFGSGTKLEIK
notes: Mouse IgG1 antibody; also called mouse hCD27.131A

Assays:
[1] = target: T10, human CD27 (A59T) (human, UniProt P26842 21-260); assay: flow cytometry on transiently transfected CHO-K1 cells
T10 construct: also called hCD27 (A59T); human CD27 variant p.Ala59Thr

[2] = target: T1, Q41A; assay: flow cytometry on CHO-K1 transfectants, cell hatched (loss of binding)
Method: (§1) The ability of several anti-hCD27 antibodies to bind to a series of hCD27 alanine mutants was determined using CHO-K1 cells, transiently transfected pCI-neo empty vector, pCI-neo.hCD27 and several pCI-neo.CD27Ala mutant constructs.
(§2) Detached cells were transferred to 96 wells round-bottomed well plates at approximately 1.2×10⁵ cells/well. After spinning down the cells, discarding the supernatants and re-suspending the cells in the residual volume, the primary antibodies were added and incubated for 30 minutes at 4° C. Cells were washed three times with DPBS/BSA 1%, followed by centrifugation, discarding of the supernatants and re-suspension in the residual volume. […] After washing once, antibody binding was detected using the HTS plate reader (FACS Canto II) and FlowJo software for data analysis. Debris, dead cells and doublets were excluded from the analysis. Binding was expressed as the geometric mean of the FITC signal, relative to antibody binding to hCD27, which was set at 100%.

[3] = target: T2, K31A; assay: as above
Method: as §1, §2

[4] = target: T3, D43A; assay: as above
Method: as §1, §2

[5] = target: T1, Q41A; assay: flow cytometry on CHO-K1 transfectants, left sub-column
Method: (§3) The hCD27 variants that were tested are listed. Amino acids correspond to the UniProt P26842-1 sequence. Amino acids 1-20 constitute the signal peptide. Binding is expressed as the geometric mean of the FITC signal, relative to antibody binding to hCD27, which was set at 100%.
as §1, §2

[6] = target: T4, W90A; assay: as above
Method: as §3, §1, §2

[7] = target: T5, V49A; assay: as above
Method: as §3, §1, §2

[8] = target: T6, K38A; assay: flow cytometry on CHO-K1 transfectants, right sub-column, cell hatched (loss of binding)
Method: as §3, §1, §2

[9] = target: T7, P8A; assay: as above
Method: as §3, §1, §2

[10] = target: T8, R37A; assay: as above
Method: as §3, §1, §2

[11] = target: T9, H36A; assay: as above
Method: as §3, §1, §2

| Binder | binding result [1] | binding, WT hCD27 = 100 (GM FITC) [2] [%] | binding, WT hCD27 = 100 (GM FITC) [3] [%] | binding, WT hCD27 = 100 (GM FITC) [4] [%] | binding, WT hCD27 = 100 (GM FITC) [5] [%] | binding, WT hCD27 = 100 (GM FITC) [6] [%] | binding, WT hCD27 = 100 (GM FITC) [7] [%] | binding, WT hCD27 = 100 (GM FITC) [8] [%] | binding, WT hCD27 = 100 (GM FITC) [9] [%] | binding, WT hCD27 = 100 (GM FITC) [10] [%] | binding, WT hCD27 = 100 (GM FITC) [11] [%] |
| --- | --- | --- | --- | --- | --- | --- | --- | --- | --- | --- | --- |
| B1 | no binding | 33.9 | 30.3 | 31 | – | – | – | – | – | – | – |
| B2 | – | – | – | – | 108 | 126 | 147 | 11.8 | 15.9 | 9.6 | 10.8 |
